Test results from publication PMC3369482 (Biochemical Journal, 2012).
Numbering of substitutions follows the chain as printed. In names and notes the source's numbering stands. Like-named read-outs stand apart in the source and are kept apart here.

B1: TIMP-1 (tissue inhibitor of metalloproteinases 1) (natural protein)
chain: not shown
B2: TIMP-3(K26/27/30/76E+R163/K165Q) (natural protein, human, UniProt P35625 24-211, looked up)
chain: CTCSPSHPQDAFCNSDIVIRAKVVGEELVEEGPFGTLVYTIKQMKMYRGFTKMPHVQYIHTEASESLCGLKLEVNEYQYLLTGRVYDGKMYTGLCNFVERWDQLTLSQRKGLNYRYHLGCNCKIKSCYYLPCFVTSKNECLWTDMLSNFGYPGYQSKHYACIQQQGGYCSWYRGWAPPDKSIINATDP
B3: Recombinant human TIMP-3 (tissue inhibitor of metalloproteinases 3) (natural protein, UniProt P35625 24-211, looked up)
chain: B2 chain with E26K, E27K, E30K, E76K, Q163R, Q165K

How the values were obtained:
Assay in all cases: enzyme inhibition kinetics
[1] = biological target: T1, Recombinant human ADAMTS-5 (adamalysin with thrombospondin motifs 5), full-length (human, UniProt Q9UNA0 262-930)
T1 sequence (looked up): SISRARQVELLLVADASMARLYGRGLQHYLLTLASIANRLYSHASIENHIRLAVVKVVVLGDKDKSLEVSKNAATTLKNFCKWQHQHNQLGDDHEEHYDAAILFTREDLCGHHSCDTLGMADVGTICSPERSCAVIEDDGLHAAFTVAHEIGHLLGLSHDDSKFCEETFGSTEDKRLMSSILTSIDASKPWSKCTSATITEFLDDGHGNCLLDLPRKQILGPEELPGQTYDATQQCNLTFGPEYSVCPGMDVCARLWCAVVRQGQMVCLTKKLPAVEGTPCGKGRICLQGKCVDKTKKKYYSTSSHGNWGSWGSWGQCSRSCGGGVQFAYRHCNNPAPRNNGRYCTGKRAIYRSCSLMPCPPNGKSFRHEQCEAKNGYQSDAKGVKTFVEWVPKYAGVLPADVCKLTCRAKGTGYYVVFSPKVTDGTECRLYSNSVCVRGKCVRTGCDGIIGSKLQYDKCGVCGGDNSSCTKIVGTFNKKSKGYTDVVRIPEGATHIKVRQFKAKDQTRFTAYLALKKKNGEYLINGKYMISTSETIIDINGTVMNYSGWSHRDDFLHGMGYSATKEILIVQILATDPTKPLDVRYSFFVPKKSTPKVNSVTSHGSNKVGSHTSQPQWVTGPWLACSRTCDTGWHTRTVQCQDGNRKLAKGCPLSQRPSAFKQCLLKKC

[2] = biological target: T1, Recombinant human ADAMTS-5 (adamalysin …); remark: listed apart in the source
[3] = biological target: T2, ADAMTS5-2 (ADAMTS-5 lacking the C-terminal TS-2 domain) (human, UniProt Q9UNA0 262-874)
T2 sequence (looked up): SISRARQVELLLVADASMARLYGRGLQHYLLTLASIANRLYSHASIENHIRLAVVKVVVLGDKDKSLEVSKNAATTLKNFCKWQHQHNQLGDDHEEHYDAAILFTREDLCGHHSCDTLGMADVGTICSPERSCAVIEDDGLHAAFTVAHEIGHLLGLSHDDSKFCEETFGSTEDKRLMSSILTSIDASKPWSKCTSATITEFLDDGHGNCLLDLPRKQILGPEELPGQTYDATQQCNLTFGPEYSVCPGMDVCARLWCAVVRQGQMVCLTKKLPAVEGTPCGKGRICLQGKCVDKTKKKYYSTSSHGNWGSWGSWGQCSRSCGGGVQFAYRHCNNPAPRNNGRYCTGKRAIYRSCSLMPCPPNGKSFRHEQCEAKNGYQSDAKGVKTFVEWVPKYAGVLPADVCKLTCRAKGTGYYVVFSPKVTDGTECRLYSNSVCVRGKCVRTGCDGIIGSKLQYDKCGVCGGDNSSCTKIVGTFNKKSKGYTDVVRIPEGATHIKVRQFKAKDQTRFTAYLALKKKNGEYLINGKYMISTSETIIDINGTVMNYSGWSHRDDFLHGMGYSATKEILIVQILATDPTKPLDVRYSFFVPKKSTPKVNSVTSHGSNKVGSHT

[4] = biological target: T3, MMP-2 (UniProt P08253 110-660)
T3 sequence (looked up): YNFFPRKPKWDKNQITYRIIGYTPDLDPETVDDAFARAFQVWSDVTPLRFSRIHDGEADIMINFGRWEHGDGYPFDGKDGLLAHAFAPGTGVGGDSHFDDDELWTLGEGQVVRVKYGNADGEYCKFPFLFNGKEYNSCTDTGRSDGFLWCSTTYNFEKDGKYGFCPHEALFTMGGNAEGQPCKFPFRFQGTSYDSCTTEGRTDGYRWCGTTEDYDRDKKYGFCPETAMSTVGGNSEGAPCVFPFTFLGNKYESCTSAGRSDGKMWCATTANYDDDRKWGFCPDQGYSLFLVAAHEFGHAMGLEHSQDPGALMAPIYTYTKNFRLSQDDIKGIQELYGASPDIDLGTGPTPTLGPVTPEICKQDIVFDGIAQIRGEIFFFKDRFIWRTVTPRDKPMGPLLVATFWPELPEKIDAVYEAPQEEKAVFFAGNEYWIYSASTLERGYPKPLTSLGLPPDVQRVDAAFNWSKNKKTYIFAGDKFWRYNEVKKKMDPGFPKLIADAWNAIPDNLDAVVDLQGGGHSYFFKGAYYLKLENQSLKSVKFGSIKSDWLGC

[5] = biological target: MMP-3 catalytic domain (UniProt P08254 100-272)
[6] = biological target: T4, MMP (matrix metalloproteinase)-1 catalytic domain (UniProt P03956 100-269)
T4 sequence (looked up): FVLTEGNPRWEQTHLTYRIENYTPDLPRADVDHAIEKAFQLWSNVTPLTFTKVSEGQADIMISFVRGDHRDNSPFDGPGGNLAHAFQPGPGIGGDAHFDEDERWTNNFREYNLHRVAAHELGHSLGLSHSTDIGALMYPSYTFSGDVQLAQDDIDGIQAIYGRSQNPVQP

MMP-3 catalytic domain, sequence (P08254 100-272): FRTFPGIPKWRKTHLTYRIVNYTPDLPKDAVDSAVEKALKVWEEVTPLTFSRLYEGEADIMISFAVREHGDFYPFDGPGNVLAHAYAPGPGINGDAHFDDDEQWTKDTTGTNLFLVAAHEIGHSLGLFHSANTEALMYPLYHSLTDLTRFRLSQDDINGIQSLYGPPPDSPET

| Binder | Ki [1] | Ki [2] | Ki [3] | Ki [4] | Ki [5] | Ki [6] |
| --- | --- | --- | --- | --- | --- | --- |
| B1 | 522 ± 0.24 nM | 734 ± 0.16 nM |  |  |  |  |
| B2 |  |  | 1.34 ± 0.04 nM |  |  |  |
| B3 |  | 0.56 ± 0.03 nM |  | 0.16 ± 0.002 nM | 0.9 ± 0.28 nM | 0.43 ± 0.12 nM |
